The DeepSol protein solubility set

Test: soluble on expression in E. coli; label from the status in PepcDB or PDB records

Row | Sequence | soluble on expression in E. coli
1 | MAHHHHHHMFQNIQTIILDVNDGEMRAGYSGECSPRYNSNLILGLPVGHGATLKHTIFPLLPEIKRDNVELIYGMKYIYDDNNSSKYEINFDVMEKLLEDISGSKALDDNFQDHPILLTEPNKTDRKYREKFTEMMFETYNVYQLFLSRRSVLSCYGCARTSGLVLDVERNCTNLCGIQEGYIFQKHIEEVPIGGDLIDRIYLAYLENVKNIKIYPYFTIEKGQSAEKETDEIRILKCPLVTKPYYLWGSLHVASHLKENLGNECHPLGDKMKKNENKNESNTSYKLPDGSIIDQTTCESLKLIFPYIFFKKKYNQNSVTKLAGITTLQNMDFNSFYDSLKTLKLPVLYKHNYRINASSSVLERVPDNPADKNSNICNSDQIDTYFEIFDGLQDFIKKGILSFISANMTLDEVLNFLIVTGESTMFHNFIGILKSYLPFIDTIKEKSTQLIYSKGADRKCNCFIGASILSSLGTFPQFCMTKSEYEEYGVKNIVDKKCV | not soluble
2 | MAHHHHHHMGGFGSKNMEYYNYASMKLLERDKYTNEKEEEEDDQYCKETDIREAVKKAREIRNCNYKESMDLYIKALKMLKKLKENNSRIYRNVLEFEIRPQEIASSAPLNTSLEKNIHMKKEGETNYTCAPPNDNQAISLNNKIASLYNEIADLCCIHDFIEKSLFYYDKACSYNPSKIDYIYKKGVLFQQMNDTERAINTFKIILSAEPNHIPTLFSLGNLYRYIDNHIALSYFEAILKIEPNNTEVLSLIASCYDNLGKLNEAISYQNKAVQIDPDNFNHKKFAQRLIEMKSQN | soluble
3 | MAHHHHHHMGKPGKKAGKGLLAPTNPNRRTDPNKTSLRDQRTIKRLKMYKSKIKRDEKGNIIKGSVLKASDRIEQQMARIAPDRRWFGNTRTIGQEALQKFREEMGTKYKDPYSVIIKQSKLPLSLLEEPKNTDGSIRKEMEWDKTFGDKANRKRVRLNAVDMSTLATEANVKGDYYDCNKKEKDRDLMKGVHKDRDDKTRNGILMTKGQSNRIWCELYKVIDSSDVVLYVVDARDPMGTRSAFLEDFMRREKKYKHFVLVLNKCDLVPLWATARWLQILSKDYPTIAFHASVNHPFGKGNVISLLRQFARLHNVTHRGSKRTKTPISVGVIGYPNVGKSSLINTLRRKSVCKVAPIPGETKVWQYVALTRSIFLIDCPGVVYDRESNNDIQAVLKGVVRVERLGNADKTDVVDTVLKIVKQRDIVATYGVREWRDVVDFLEKLAKLRGKLVAGGEPDVEAAARMLLYDWQRGRLPWFNAPPFESNKHHRDAMEQPQEKHMKLIEHYSTFNVVDDTINRGDEKQDEGGDGDEETANNAADEDQLDSGSEAEKDEEAVKPLKPSKTDRLSATKADTQLATVATYMREQEEKQRKAQRQQKRKAARKGQEDVEAFSADADRESDDALWAQFLAAAKV | soluble
4 | MAHHHHHHMGQGLTGGAMAGAALSITALPLRLTLADHLGICGAATACGLALDFASDCCSKEGRVIIHRDVLLKAQDPLRHLSTFYTTCESNRMARLFRQKHEWVVLESHGQQYYVVQKNPATGDVLMDVRNSLRAANDVGLQVAGKPMHTGEIRQHRMETEFDLPSDLQVAYVIAWLRKEDPRWAFSTENSRQFTARVRYALMDF | not soluble
5 | MAHHHHHHMGTLEAQTQGPGSMRRVVVTGMGIVSSIGSNTEEVTASLREAKSGISRAEEYAELGFRCQVHGAPDIDIESLVDRRAMRFHGRGTAWNHIAMDQAIADAGLTEEEVSNERTGIIMGSGGPSTRTIVDSADITREKGPKRVGPFAVPKAMSSTASATLATFFKIKGINYSISSACATSNHCIGNAYEMIQYGKQDRMFAGGCEDLDWTLSVLFDAMGAMSSKYNDTPSTASRAYDKNRDGFVIAGGAGVLVLEDLETALARGAKIYGEIVGYGATSDGYDMVAPSGEGAIRCMKMALSTVTSKIDYINPHATSTPAGDAPEIEAIRQIFGAGDVCPPIAATKSLTGHSLGATGVQEAIYSLLMMQNNFICESAHIEELDPAFADMPIVRKRIDNVQLNTVLSNSFGFGGTNATLVFQRYQG | soluble
6 | MAHHHHHHMHHGATLHESLPCPLVSPIVSIDQCPFQPHERSETRPPHGNASLTFYTARSRCRVNFTPGPNVTYSAENKYSWNPYYRLETENKSQRLKAAQEECNSASVSGPCPIALTPRQGQCMARCSNTSSSTAQSPMHTFGCETPAIVSRCELSPQFSSVKSESGRALLTASHSIEENSITESTCVPQFDNMMHGLPMYASIHPVGEVWPLNEMNNEENVVFDAIKPTRNEQLQQQLYPTPLLVSQNQPTVSPYPYVMESRTIQPTYVSYNKARVPLLRFSKMLPPPVRCEAMSILENENPQLPLLMMYNPVLRWYERIKALLNEDYSAWPGGSCAVNISNNKSVRLELEEPCPTLPNKAEQTRENMSQWLKECNEWWDRQFFEKSRNGDKRRNGTGRGKWRQYSIQYPYNNHNNNNKAHKVNRGMQFDGEVAFLRRGGLQ | not soluble
